Test results: patent publication US20240190903, “COMPOUNDS FOR PROGRAMMABLE PROTEIN DEGRADATION AND METHODS OF USE FOR THE TREATMENT OF DISEASE” (Mayo Foundation for Medical Education and Research, published 2024)

Target: p53 WT (UniProt P04637 P04637:1-393)
Experiment: EMSA; GST-p53 purified from bacteria
Conditions: tags: GST; chain copies: 4; label: biotin
Method: For supershift assay, anti-p53 antibodies were added into the cell nuclear extract mixed with the biotin-labeled probes and the mixture were incubated with for 1 hour at room temperature before loading into 6% of non-denatured polyacrylamide gel.

Sequence of p53 WT (P04637 whole entry, one chain of several): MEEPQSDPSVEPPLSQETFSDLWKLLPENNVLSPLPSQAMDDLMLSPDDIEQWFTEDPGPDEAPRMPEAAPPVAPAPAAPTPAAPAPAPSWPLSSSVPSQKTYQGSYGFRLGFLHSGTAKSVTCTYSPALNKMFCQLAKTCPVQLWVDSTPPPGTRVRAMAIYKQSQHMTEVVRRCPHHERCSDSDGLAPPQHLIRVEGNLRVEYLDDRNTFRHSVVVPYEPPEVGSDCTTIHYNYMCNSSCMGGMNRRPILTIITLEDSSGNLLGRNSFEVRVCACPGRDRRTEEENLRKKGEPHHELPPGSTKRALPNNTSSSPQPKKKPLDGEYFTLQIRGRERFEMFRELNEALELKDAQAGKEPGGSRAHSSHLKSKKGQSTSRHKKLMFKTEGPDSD

B1: CTNNB1 probe 1 (MP53BS) (dsDNA)
DNA 1: GCCCCCTCGCGCCCCGCCCCTTGTC
DNA 2: GACAAGGGGCGGGGCGCGAGGGGGC
B1: no binding.
